Key:
RUES2-CMs = test: Immunocytochemistry (α-actinin staining) and morphological analysis of lentivirally transduced cardiomyocytes; assay type: cell-based, human; conditions: for cell perimeter / cell area: let-7 OE CMs at roughly day 30; for cell perimeter: EV control 108±15 μm, n=50 cells per condition; for cell perimeter / cell area / sarcomere length: P<0.001; for cell area: EV control 380±70 μm^2; for Circularity index (4πArea/(perimeter)^2) / sarcomere length: let-7 OE CMs; for Circularity index (4πArea/(perimeter)^2): EV control 0.41±0.02; for sarcomere length: EV control 1.65±0.02 μm
Protocol: Undifferentiated human embryonic stem cell (hESCs) lines H7 (NIHhESCC-10-0061) and RUES2 (NIHhESC-09-0013) were expanded using mouse embryonic fibroblast-conditioned medium with 5 ng/ml basic fibroblast growth factor. H7-CMs were derived using previously reported protocols^1-3. RUES2-CMs were used for all functional analyses and these were derived using a cardiac progenitor cell differentiation protocol^4 derived from previously reported monolayer directed differentiation methods^1, 5, 6. In brief, this involves the induction of a monolayer of hESCs with activin A and bone morphogenetic protein-4 (BMP4) under serum- and insulin-free conditions. During the early stages of differentiation, the cells were also exposed to the Wnt agonist CHIR 99021 followed by the Wnt antagonist Xav939. From 7 days of in vitro differentiation, the cells were fed every alternate day with serum-free RPMI-B27 plus insulin media. After 20 days of in vitro differentiation, the cells were trypsinized and replated. Only those cell preparations that had at least 70% cardiac troponin T-positive CMs (as observed by flow cytometry) were used for further experiments. For experiments where the H7-CMs were cultured for around a year, the cells were replated after the 3rd and 11th month from day 0. At the 11th month, FACS analysis for cTnT was conducted and the CMs were split into three parts and were cultured as three independent replicates for another 1.5 months after which they were harvested for RNA extraction. IMR90iPSC-CMs cultured for 1 yr were replated at day 20 and split every 2 months for 12 months before harvesting for RNA extraction. To generate engineered cardiac tissue, the inventors used the procedure reported by Tulloch et al.^2 In brief, day 20 CMs are suspended in the collagen gel at 10,000/μl, and rod-shaped constructs of 25 μl (1 mm radius×8 mm length) were generated by casting in a preformed mold and warming to 37° C. The ends of the mold contain Velcro-like micro-fiber loops, and these become impregnated with gel+cell mixture. These tabs allow the constructs to be maintained under static tension, which facilitates alignment and differentiation of the CMs. The constructs were maintained in the serum-free RPMI-B27 plus glutamine media up to 2 weeks. For let-7 overexpression analysis, the CMs were transduced with the virus carrying the pLKO-let-7 or empty vector control pLKO plasmid at day 12 of the directed differentiation protocol. After overnight transduction the virus was removed, cells were rinsed with PBS and new media added. The samples were analyzed at day 30 from the initiation of differentiation.
All morphological analyses were carried out using at least 50 cells. Cells replated in chamber slides were fixed in 4% paraformaldehyde for 15 minutes followed by PBS wash. The fixed cells were blocked for an hour with 1.5% normal goat serum and incubated O/N with mouse alpha actinin (sigma) primary antibody. The primary antibody was rinsed with PBS and incubated with secondary antibody (Alexa fluor 488 [Goat anti mouse]) for an hour followed by nuclear staining using DAPI. For cell area and perimeter measurements, images were acquired and processed using ZEISS™ AXIO fluorescent microscope and AXIOVISION™ software. For sarcomere length, images were acquired and processed using LEICA™ TCS-SPE confocal microscope and LEICA™ software. These confocal images were used to select 1-2 myofibrils per cell with at least ten continuous, well-recognized alpha-actinin bands and divided the length value by the number of sarcomeres. The images were further analyzed using IMAGE J™ software.
For lenti-let-7 OE constructs, Pri-miR-let-7i and pri-miR-let-7g sequence was amplified from H7 genomic DNA using forward primer for let-7i-TCCGCGTGGTCCCGT; reverse primer for let-7i-ATTGTCCTCCGCGGCGC and forward primer for let-7g-AGAGTTCCTCCAGCGCTCC; reverse primer for let-7g-CCCCACTTGGCAGCTGGC, resulting in 153 bp and 154 bp products, respectively. […]

hESCs-CMs = test: Contractile force and beat frequency measurement on arrays of microposts; assay type: cell-based, human; conditions: let-7 OE CMs; for beat frequency: EV control 1.57±0.1 hz; for average twitch force: EV control 7.77±0.7 nN/cell, P<0.001
Protocol: Arrays of silicone microposts were fabricated out of polydimethylsiloxane (PDMS) via a previously-described double-casting process using soft lithography from a SU8 master^19. Each micropost within the arrays used for these studies was 6.45 μm in height, 2.3 μm in diameter, and the center to center spacing between adjacent posts was 6 μm. Prior to cell seeding, the tips of these microposts were stamped with 50 μg/ml of mouse laminin (LIFE TECHNOLOGIES™), and the remaining surfaces of the array were fluorescently stained with BSA 594 and blocked with 0.2% Pluronic F-127 (in PBS)^20. CMs that were 1 week post pLKO-let-7 OE or EV lentiviral transfection, were seeded onto these arrays at a density of around 800,000 cells per substrate.
One week following cell seeding, muscle twitches from individual hESCs-CMs were recorded with high-speed video microscopy within a live cell chamber at 37° C. These images were acquired using a NIKON™ Ti-E upright microscope with a 60× water-immersion objective and a Hammamatsu ORCA™ camera. A custom MATLAB™ code was then used to compare each time frame of this video, to a reference fluorescent image, taken at the base plane of the posts. The twitch force at each post was subsequently calculated by multiplying the deflection of the post by the post's bending stiffness (38 nN/μm). The total twitch force produced by the cell was then determined by adding together the twitch force measured at each post beneath the cell. The average spontaneous beating frequency of the cells was determined by locating the time at which each beat reaches a maximum in the total twitch force (using the same MATLAB™ code), calculating the frequency between each sequential beat: 1/(time at which second beat occurs—time at which first beat occurs), and then averaging these frequencies across all of the measured twitch events.

B1: let-7i: human let-7 family miRNA, SEQ ID NO: 10, overexpressed from pLKO lentiviral pri-miR-let-7i construct (nucleic acid, listed as Homo sapiens)
chain: CUGGCUGAGGUAGUAGUUUGUGCUGUUGGUCGGGUUGUGACAUUGCCCGCUGUGGAGAUAACUGCGCAAGCUACUGCCUUGCUA
cell perimeter (RUES2-CMs): 300±7.4 μm | cell area (RUES2-CMs): 1110±101 μm^2 | Circularity index (4πArea/(perimeter)^2) (RUES2-CMs): 0.15±0.04 | sarcomere length (RUES2-CMs): 1.70±0.01 μm | beat frequency (hESCs-CMs): 1.05±0.1 hz | average twitch force (hESCs-CMs): 11.32±0.86 nN/cell

B2: let-7g: human let-7 family miRNA, SEQ ID NO: 9, overexpressed from pLKO lentiviral pri-miR-let-7g construct (nucleic acid, listed as Homo sapiens)
chain: AGGCUGAGGUAGUAGUUUGUACAGUUUGAGGGUCUAUGAUACCACCCGGUACAGGAGAUAACUGUACAGGCCACUGCCUUGCCA
cell perimeter (RUES2-CMs): 302±3 μm | cell area (RUES2-CMs): 980±95 μm^2 | Circularity index (4πArea/(perimeter)^2) (RUES2-CMs): 0.12±0.02 | sarcomere length (RUES2-CMs): 1.69±0.01 μm | beat frequency (hESCs-CMs): 0.92±0.094 hz | average twitch force (hESCs-CMs): 9.28±0.7 nN/cell
